Test results from article PMC9519457 (Nature Microbiology, 2022).

B1: R1-32 (antibody, V domains shown)
VH: EVQLVESGAEVKKPGSSVKVSCKASGGTFSSYAISWVRQAPGQGLEWMGGIIPILGIANYAQKFQGRVTITADKSTSTAYMELSSLRSEDTAVYYCARENGYSGYGAAANFDLWGRGTLVTVSS
VL: QSVLTQPPSVSGAPGQRVTISCTGSSSNIGAGYDVHWYQQLPGTAPKLLIYGNSNRPSGVPDRFSGSKSGTSASLAITGLQAEDEADYYCQSYDSSLSGSVFGGGTKLTVL
notes: human IgG1
B2: C092 (antibody, V domains shown)
VH: QVQLVQSGAEVKKPGSSVKVSCKASGGSFTNHFISWVRQAPGQGLEWMGRIIPILGTANYAQNFQGRVMMTADKSTSTAYMELSSLRSEDTAVYYCARDSGYSGYGSTYYMDVWGKGTTVTVSS
VL: QSVLTQPPSVSGAPGQRVTISCTGSNSNIGAGYDVHWYQQLPGAAPKLLIYGNNNRPSGVPDRFSGSKSDTSASLAITGLQVEDEADYYCQSYDSSLSDSVFGSGTKVTVL
notes: human IgG1
B3: C832 (antibody, V domains shown)
VH: QVQLVQSGAEVKKPGSSVKVSCKASGGTFSSYSISWVRQAPGQGLEWMGRIIPILGIASYAQKFQGRVTITADKSTSTVYMELTGLRSDDTAVYYCARDRGYSDYGSHYYMDVWGKGTTVTVSS
VL: QSVLTQPPSVSGAPGQRVTISCTGSSSNIGAGYDVHWYQQLPGTAPKLLIYINSNRPSGVPDRFSGSKSGTSASLAITGLQAEDEADYYCQSYDSSLSDSVFGGGTKLTVL
notes: human IgG1
B4: R1-32 (human IgG1 monoclonal antibody) (antibody, V domains shown)
VH: EVQLVESGAEVKKPGSSVKVSCKASGGTFSSYAISWVRQAPGQGLEWMGGIIPILGIANYAQKFQGRVTITADKSTSTAYMELSSLRSEDTAVYYCARENGYSGYGAAANFDLWGRGTLVTVSS
VL: QSVLTQPPSVSGAPGQRVTISCTGSSSNIGAGYDVHWYQQLPGTAPKLLIYGNSNRPSGVPDRFSGSKSGTSASLAITGLQAEDEADYYCQSYDSSLSGSVFGGGTKLTVL
B5: C091 (antibody, V domains shown)
VH: QVQLVQSGAEVKKPGSSVKVSCKASGGTFSSYTISWVRQAPGQGLEWMGRIIPILGIANYAQKFQGRVTITADKSTSTAYMELSSLRSEDTAVYYCARDSGYSGYGSTYYMDVWGKGTTVTVSS
VL: QSVLTQPPSVSGAPGQRVTISCTGSSSNIGAGYDVHWYQQLPGTAPKLLIYGNSNRPSGVPDRFSGSKSGTSASLAITGLQAEDEADYYCQSYDSSLSGSVFGTVTKVTVL
notes: human IgG1
B6: C807 (antibody, V domains shown)
VH: QVQLVQSGAEAKKPGSSVKVSCKASGGTFKSYIINWVRQAPGQGLEWMGEIIPIFGTANYAQKFQGRVTSTADESTSTAYMELSSLKSEDTAVYYCARGRGYSGYGASYYFDYWGQGTLVTVSS
VL: QSVLTQPPSVSGAPGQRVTISCTGSNSNIGAGYDVHWYQQLPGTAPKLLIYANSNRPSGVPDRFSGSKSGTSASLAITGLQAEDEADYYCQSYDSGLSGSVFGGGTKLTVL
notes: human IgG1
B7: FC08 (antibody, V domains shown)
VH: QLLQQSGAEVKKPGSSVKVSCKASGGTFSSYAISWVRQAPGQGLEWMGGIIPIIGIANYAQKFQGRVTITADKSTSTAYMELSSLRSEDTAVYYCARERGYSGYGAAYYFDYWGQGTLVTVSS
VL: SVLTQPPSVSGAPGQRVTISCTGSSSNIGAGYDVHWYQQLPGTAPKLLIYGNSNRPSGVPDRFSGSKSGTSASLAITGLQAEDEADYYCQSYDSSLSGSVFGGGTKLTVL
B8: C978 (antibody, V domains shown)
VH: QVQLVQSGAEVKKPGSSVKVSCKASGATFSNYIISWVRQAPGQGLEWMGRTIPLLDIANYAQKFQGRVTITADKSTRIVYMHLGSLTSEDTAVYYCATGKGYSSSSAAYYFDHWGQGTLVTVSS
VL: QSVLTQPPSVSGAPGQRVTISCTGTNSNIGAGYDIHWYQQLPGTAPKLLIYGSNNRPSGVPDRFSGSKSGTSASLAITGLQAEDEADYYCQSYDSSLSGSEVFGGGTKLTVL
notes: human IgG1
B9: C963 (antibody, V domains shown)
VH: QVQLVQSGAEVKKPGSSVRVSCKASGGTFSSFTITWVRQAPGQGLEWMGRIIPNLNIPNYAQRFQGRITITAEKSTSTAYLELSSLRSEDTAVYYCARGVGYSGSGSNWYFDLWGRGTLVTVSS
VL: QSVLTQPPSVSGAPGQRVTISCTGSSSNIGAGYDVHWYQQLPGTAPKLLISGHINRPSGVPDRFSGSTSGTSASLAITGLQAEDEADYYCQSYDSSLSDSVFGGGTKLTV
notes: human IgG1
B10: C941 (antibody, V domains shown)
VH: QVQLVQSGAEVKKPGSSVKVSCKASGGTSRSYPISWVRQAPGQGLEWMGRIIPIVGTANYAQRFQGRVTITADESTGTAYMELSSLRSEDTAVYYCARNRGYSDYGSVYYFDYWGQGTLVTVSS
VL: QSVLTQPPSVSGAPGQRVTISCTGSSSNIGAGYDVHWYQQLPGAAPKLLIYRNINRPSGVPDRFSGSKSGTSASLAITGLQADDEADYYCQSYDSSLSGSVFGGGTKLTV
notes: human IgG1

Columns and labels:
Test in all cases: BLI
Conditions in all cases: both partners purified
[1] = target: T1, SARS-CoV-2 wild-type RBD (SARS-CoV-2 wild type)
[2] = target: T1, SARS-CoV-2 wild-type RBD; remark: listed apart in the source
[3] = target: T1, SARS-CoV-2 wild-type RBD; remark: listed apart in the source
[4] = target: SARS-CoV-2 RBD (residues 319-541), wild type (SARS-CoV-2, wild type, UniProt P0DTC2)
[5] = target: T1, SARS-CoV-2 wild-type RBD; remark: listed apart in the source

Row | Binder | Kd [3] [nM] | koff [3] [s⁻¹] | kon [3] [M⁻¹ s⁻¹] | other results
1 | B1 |  |  |  | koff [1]: 0.000376 s⁻¹; kon [1]: 472000 M⁻¹ s⁻¹; Kd [2]: 2.8 nM; koff [2]: 0.00149 s⁻¹; kon [2]: 533000 M⁻¹ s⁻¹
2 | B2 | 0.16 | 0.000103 | 642000 | 
3 | B3 | 0.63 | 0.000246 | 387000 | 
4 | B4 |  |  |  | Kd [4]: 0.8 nM
5 | B5 | 9.75 | 0.00337 | 346000 | 
6 | B6 | 0.79 | 0.000431 | 547000 | 
7 | B7 |  |  |  | Kd [5]: 0.35 nM; koff [5]: 0.00028 s⁻¹; kon [5]: 797000 M⁻¹ s⁻¹
8 | B8 | 0.99 | 0.000524 | 531000 | 
9 | B9 | 0.84 | 0.000593 | 709000 | 
10 | B10 | 0.77 | 0.000117 | 153000 | 
